Measured values: paper PMC8693972 (Molecular Biology of the Cell, 2021)

Target: T1, fluorescently labeled Qc-SNARE Vam7 (yeast, UniProt P32912 1-316, labeled with a fluorophore distinct from that of Qb)
T1 sequence: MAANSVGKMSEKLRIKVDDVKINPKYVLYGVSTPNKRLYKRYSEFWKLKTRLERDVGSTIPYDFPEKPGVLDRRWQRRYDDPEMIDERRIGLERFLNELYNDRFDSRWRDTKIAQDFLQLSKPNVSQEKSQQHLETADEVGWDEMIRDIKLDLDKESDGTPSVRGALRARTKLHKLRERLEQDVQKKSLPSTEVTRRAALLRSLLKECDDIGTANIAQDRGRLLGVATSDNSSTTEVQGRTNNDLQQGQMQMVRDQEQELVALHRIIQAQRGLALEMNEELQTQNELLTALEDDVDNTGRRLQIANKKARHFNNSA
Assay: FRET or BRET

B1: fluorescent Qb-SNARE domain (cysteine-tagged synthetic SNARE domain of the Qb-SNARE Vti1) (domain or fragment)
chain: HAILQKSGDRLKDASRIANETEGIGSQIMMDLRSQRETLENARQTLFQADSYVDKSIKTLKTM
modifications: also: cysteine tag with fluorophore (Alexa-568), tag not in given chain
- fold faster FRET with sQa than without sQa: 100 fold
